Data: IntAct's records for PubMed 25961797

Legend:
cbp_mouse Crebbp = cbp_mouse Crebbp (UniProt P45481)
cry1_mouse Cry1 = cry1_mouse Cry1 (UniProt P97784)
Chain of cry1_mouse Cry1 (P97784 whole entry): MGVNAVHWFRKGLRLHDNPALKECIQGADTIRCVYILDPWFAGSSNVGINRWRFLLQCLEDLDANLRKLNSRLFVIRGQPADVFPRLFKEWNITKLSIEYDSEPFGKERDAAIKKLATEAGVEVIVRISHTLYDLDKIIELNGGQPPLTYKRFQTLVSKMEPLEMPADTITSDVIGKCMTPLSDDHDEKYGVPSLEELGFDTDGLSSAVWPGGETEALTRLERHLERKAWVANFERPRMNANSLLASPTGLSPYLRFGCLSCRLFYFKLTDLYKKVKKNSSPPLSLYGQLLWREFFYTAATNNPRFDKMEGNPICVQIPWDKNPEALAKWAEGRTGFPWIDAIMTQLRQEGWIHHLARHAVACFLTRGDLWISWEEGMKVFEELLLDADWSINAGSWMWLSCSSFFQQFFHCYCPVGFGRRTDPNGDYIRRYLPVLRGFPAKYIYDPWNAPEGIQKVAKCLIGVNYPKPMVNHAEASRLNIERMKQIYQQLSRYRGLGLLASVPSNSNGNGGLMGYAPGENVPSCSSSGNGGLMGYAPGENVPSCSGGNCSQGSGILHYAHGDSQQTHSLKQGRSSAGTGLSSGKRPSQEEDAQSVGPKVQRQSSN

Chain of Basic helix-loop-helix ARNT-like protein 1 (Mus musculus), Q9WTL8-4 L606A;L607A (Q9WTL8 other isoform, or with tags, fused parts or gaps L606A;L607A): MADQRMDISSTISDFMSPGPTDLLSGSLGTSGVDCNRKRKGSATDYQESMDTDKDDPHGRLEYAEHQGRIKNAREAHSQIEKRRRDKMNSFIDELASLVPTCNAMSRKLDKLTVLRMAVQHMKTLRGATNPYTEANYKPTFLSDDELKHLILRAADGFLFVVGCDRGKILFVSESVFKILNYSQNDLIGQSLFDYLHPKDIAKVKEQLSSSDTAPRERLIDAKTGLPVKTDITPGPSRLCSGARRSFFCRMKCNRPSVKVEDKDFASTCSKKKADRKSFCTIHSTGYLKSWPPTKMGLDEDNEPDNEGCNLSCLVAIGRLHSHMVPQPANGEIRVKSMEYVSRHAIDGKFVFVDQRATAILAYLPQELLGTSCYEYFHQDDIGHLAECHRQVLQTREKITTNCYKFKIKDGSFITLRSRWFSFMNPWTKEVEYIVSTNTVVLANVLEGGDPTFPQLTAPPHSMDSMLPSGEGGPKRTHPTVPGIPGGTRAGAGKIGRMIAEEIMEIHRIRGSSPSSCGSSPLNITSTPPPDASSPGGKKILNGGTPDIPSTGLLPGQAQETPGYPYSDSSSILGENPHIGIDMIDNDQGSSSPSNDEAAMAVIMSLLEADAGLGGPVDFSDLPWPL
Chain of Basic helix-loop-helix ARNT-like protein 1 (Mus musculus), Q9WTL8-4 V602A;I603F (Q9WTL8 other isoform, or with tags, fused parts or gaps V602A;I603F): as the sequence (Q9WTL8 other isoform, or with tags, fused parts or gaps L606A;L607A) above
Chain of cbp_mouse Crebbp (P45481 whole entry): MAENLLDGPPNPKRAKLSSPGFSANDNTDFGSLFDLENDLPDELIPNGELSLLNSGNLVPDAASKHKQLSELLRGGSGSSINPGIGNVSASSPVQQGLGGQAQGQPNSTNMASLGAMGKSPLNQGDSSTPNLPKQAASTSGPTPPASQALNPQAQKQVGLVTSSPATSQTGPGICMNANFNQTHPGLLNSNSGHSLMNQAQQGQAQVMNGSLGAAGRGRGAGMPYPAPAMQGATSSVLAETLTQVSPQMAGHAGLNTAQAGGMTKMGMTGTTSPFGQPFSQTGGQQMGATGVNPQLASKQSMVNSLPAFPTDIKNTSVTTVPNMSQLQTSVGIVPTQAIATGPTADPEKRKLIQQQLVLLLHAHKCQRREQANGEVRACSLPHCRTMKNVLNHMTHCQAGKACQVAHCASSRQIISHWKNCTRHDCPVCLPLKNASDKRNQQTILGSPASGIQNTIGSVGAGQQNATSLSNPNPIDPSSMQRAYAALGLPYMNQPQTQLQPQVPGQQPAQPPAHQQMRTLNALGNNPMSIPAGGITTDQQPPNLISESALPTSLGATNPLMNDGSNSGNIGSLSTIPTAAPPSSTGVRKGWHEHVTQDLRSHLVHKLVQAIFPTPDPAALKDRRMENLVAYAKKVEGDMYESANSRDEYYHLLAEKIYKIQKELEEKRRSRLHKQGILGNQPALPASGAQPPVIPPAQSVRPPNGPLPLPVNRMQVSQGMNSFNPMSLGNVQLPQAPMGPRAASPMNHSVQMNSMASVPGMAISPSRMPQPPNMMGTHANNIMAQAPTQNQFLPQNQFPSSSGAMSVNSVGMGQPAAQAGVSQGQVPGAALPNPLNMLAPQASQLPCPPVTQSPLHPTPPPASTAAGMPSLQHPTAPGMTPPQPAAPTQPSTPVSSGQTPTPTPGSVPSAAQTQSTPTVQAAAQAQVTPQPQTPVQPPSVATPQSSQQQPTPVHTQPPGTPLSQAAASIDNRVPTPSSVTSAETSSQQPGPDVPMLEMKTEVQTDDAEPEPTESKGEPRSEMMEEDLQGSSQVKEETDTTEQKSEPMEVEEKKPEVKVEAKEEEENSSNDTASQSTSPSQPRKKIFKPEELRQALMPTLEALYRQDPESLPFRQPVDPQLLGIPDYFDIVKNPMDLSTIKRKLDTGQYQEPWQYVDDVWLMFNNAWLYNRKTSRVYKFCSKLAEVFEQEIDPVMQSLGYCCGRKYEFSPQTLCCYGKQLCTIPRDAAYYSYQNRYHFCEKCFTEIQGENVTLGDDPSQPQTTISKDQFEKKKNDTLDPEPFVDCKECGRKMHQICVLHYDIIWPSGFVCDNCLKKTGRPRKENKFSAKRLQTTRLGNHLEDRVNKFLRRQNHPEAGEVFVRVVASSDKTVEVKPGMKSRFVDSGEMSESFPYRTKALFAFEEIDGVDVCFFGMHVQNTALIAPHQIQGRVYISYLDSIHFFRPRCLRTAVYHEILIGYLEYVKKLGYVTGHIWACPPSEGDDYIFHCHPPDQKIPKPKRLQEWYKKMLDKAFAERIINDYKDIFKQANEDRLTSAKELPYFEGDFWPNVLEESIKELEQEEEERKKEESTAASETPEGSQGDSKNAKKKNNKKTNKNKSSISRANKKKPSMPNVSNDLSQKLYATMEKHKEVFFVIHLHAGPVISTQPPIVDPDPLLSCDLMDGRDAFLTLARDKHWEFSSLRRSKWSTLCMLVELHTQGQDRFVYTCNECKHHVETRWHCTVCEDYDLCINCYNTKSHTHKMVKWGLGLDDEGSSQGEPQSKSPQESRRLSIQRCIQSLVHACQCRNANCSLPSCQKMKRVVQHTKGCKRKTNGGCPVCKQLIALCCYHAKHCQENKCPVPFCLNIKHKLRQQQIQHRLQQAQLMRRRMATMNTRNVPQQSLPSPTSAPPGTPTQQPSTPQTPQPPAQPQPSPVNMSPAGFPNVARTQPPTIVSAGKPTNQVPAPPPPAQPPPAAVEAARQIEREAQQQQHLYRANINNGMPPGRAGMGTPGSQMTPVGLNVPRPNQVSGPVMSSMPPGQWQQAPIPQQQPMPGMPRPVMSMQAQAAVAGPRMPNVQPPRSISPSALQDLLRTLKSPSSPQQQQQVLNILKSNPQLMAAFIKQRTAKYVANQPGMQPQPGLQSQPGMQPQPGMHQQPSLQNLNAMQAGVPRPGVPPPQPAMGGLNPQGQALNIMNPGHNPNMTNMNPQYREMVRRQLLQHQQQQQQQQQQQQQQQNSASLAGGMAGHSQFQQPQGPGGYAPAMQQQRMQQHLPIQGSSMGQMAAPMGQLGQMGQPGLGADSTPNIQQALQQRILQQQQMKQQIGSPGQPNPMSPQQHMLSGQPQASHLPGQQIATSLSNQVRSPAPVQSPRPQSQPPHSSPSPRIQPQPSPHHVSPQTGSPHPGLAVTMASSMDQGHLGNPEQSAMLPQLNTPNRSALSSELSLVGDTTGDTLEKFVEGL

| effect of a mutation on the interaction (cbp_mouse Crebbp) | effect of a mutation on the interaction (cry1_mouse Cry1) | Substance |
| --- | --- | --- |
| disrupting interaction strength | disrupting interaction strength | Basic helix-loop-helix ARNT-like protein 1 (Mus musculus), Q9WTL8-4 L606A;L607A |
| – | disrupting interaction strength | Basic helix-loop-helix ARNT-like protein 1 (Mus musculus), Q9WTL8-4 V602A;I603F |
